Measurements from patent publication US20160002337A1 (ALBERT EINSTEIN COLLEGE OF MEDICINE, published 2016).

Key:
B7x-Ig [1] = molecular target: T1, B7x-Ig (human, UniProt Q7Z7D3 25-259; P01857 99-330 = IgG part, limits assumed); experiment: FACS on 3T3 or CT26 transfectants, PE anti-human IgG Fc
T1 construct: extracellular domain;domain: Fc; Made in Drosophila S2 cells; Used as a control fusion protein; also called B7x-Ig fusion protein
Procedure: (§1) Antibodies and flow cytometry. Cells were incubated with Fc blocking reagents and then stained with combinations of the following anti-human antibodies: CD152-PE, CD28-PE, B7-1-PE, B7-2-PE, PD-1-PE, PD-L1-PE, PD-L2-PE, ICOS-PE, ICOSL-PE, B7H4-PE, CD14-FITC, CD19-FITC, CD8a-Percp-Cy5.5, CD4-APC, CD83-APC, streptavidin and isotype controls (eBioscience). Biotinylated anti-hB7-H3 was purchased from R&D. For receptor binding, cells were incubated with HHLA2-Ig, B7x-Ig, or control Ig for 45 min on ice and then stained with PE-anti-human IgG Fc (Jackson Immunoresearch). Samples were acquired on a FACSCalibur, LSRII or LSRII yellow (BD Biosciences), and analyzed with FlowJo (Treestar).

B7x-Ig [2] = molecular target: T1, B7x-Ig; experiment: FACS on 3T3 transfectants, PE anti-human IgG Fc
Procedure: as §1

[3] = molecular target: T2, Fc portion of human IgG1 (Ig control) (human, UniProt P01857-1 99-330 = IgG part, limits assumed); experiment: FACS on 3T3 transfectants, PE anti-human IgG Fc
T2 construct: domain: Fc; Control protein made in Drosophila S2 cells; also called control Ig; human IgG1 Fc tag
Procedure: as §1

T1 sequence (Q7Z7D3 other isoform, or with tags, fused parts or gaps limits assumed): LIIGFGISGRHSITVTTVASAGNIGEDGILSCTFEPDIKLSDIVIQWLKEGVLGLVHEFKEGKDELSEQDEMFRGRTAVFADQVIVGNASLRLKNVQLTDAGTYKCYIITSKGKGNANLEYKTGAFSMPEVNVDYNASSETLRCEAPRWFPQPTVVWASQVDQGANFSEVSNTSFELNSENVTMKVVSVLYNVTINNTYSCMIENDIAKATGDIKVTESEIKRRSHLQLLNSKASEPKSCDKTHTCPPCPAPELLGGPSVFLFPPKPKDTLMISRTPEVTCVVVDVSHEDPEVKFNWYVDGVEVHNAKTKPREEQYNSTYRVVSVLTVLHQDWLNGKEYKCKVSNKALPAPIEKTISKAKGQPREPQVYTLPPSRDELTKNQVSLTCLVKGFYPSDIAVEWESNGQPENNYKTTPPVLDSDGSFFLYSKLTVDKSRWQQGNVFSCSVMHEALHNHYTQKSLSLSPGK

| Binder | binding result (B7x-Ig [1]) | binding result (B7x-Ig [2]) | binding result [3] |
| --- | --- | --- | --- |
| human B7-1 on transfected cells (ligand, UniProt P33681 35-288, looked up, whole, on cells; also called CD80) VIHVTKEVKEVATLSCGHNVSVEELAQTRIYWQKEKKMVLTMMSGDMNIWPEYKNRTIFDITNNLSIVILALRPSDEGTYECVVLKYEKDAFKREHLAEVTLSVKADFPTPSISDFEIPTSNIRRIICSTSGGFPEPHLSWLENGEELNAINTTVSQDPETELYAVSSKLDFNMTTNHSFMCLIKYGHLRVNQTFNWNTTKQEHFPDNLLPSWAITLISVNGIFVICCLTYCFAPRCRERRRNERLRRESVRPV | no binding |  |  |
| human B7h on transfected cells (ligand, UniProt O75144 19-302, looked up, whole, on cells; also called ICOS-L) DTQEKEVRAMVGSDVELSCACPEGSRFDLNDVYVYWQTSESKTVVTYHIPQNSSLENVDSRYRNRALMSPAGMLRGDFSLRLFNVTPQDEQKFHCLVLSQSLGFQEVLSVEVTLHVAANFSVPVVSAPHSPSQDELTFTCTSINGYPRPNVYWINKTDNSLLDQALQNDTVFLNMRGLYDVVSVLRIARTPSVNIGCCIENVLLQQNLTVGSQTGNDIGERDKITENPVSTGEKNAATWSILAVLCLLVVVAVAIGWVCRDRCLQHSYAGAWAVSPETELTGHV | no binding |  |  |
| human ICOS on transfected cells (receptor, UniProt Q9Y6W8 21-199, looked up, whole, on cells) EINGSANYEMFIFHNGGVQILCKYPDIVQQFKMQLLKGGQILCDLTKTKGSGNTVSIKSLKFCHSQLSNNSVSFFLYNLDHSHANYYFCNLSIFDPPPFKVTLTGGYLHIYESQLCCQLKFWLPIGCAAFVVVCILGCILICWLTKKKYSSSVHDPNGEYMFMRAVNTAKKSRLTDVTL |  | no binding | no binding |

Other lines, results leading:

| binding result (B7x-Ig [1]) | binding result (B7x-Ig [2]) | binding result [3] | Binder |
| --- | --- | --- | --- |
| no binding |  |  | human B7-2 on transfected cells (ligand, UniProt P42081 24-329, looked up, whole, on cells; also called CD86) APLKIQAYFNETADLPCQFANSQNQSLSELVVFWQDQENLVLNEVYLGKEKFDSVHSKYMGRTSFDSDSWTLRLHNLQIKDKGLYQCIIHHKKPTGMIRIHQMNSELSVLANFSQPEIVPISNITENVYINLTCSSIHGYPEPKKMSVLLRTKNSTIEYDGVMQKSQDNVTELYDVSISLSVSFPDVTSNMTIFCILETDKTRLLSSPFSIELEDPQPPPDHIPWITAVLPTVIICVMVFCLILWKWKKKKRPRNSYKCGTNTMEREESEQTKKREKIHIPERSDEAQRVFKSSKTSSCDKSDTCF |
| no binding |  |  | human PD-L2 on transfected cells (ligand, UniProt Q9BQ51 20-273, looked up, whole, on cells; also called B7-DC) LFTVTVPKELYIIEHGSNVTLECNFDTGSHVNLGAITASLQKVENDTSPHRERATLLEEQLPLGKASFHIPQVQVRDEGQYQCIIIYGVAWDYKYLTLKVKASYRKINTHILKVPETDEVELTCQATGYPLAEVSWPNVSVPANTSHSRTPEGLYQVTSVLRLKPPPGRNFSCVFWNTHVRELTLASIDLQSQMEPRTHPTWLLHIFIPFCIIAFIFIATVIALRKQLCQKLYSSKDTTKRPVTTTKREVNSAI |
